One block for each binder: values may come before it.
Assays:
[1] = target: T1, proliferating cell nuclear antigen, transcript variant 1 (human, UniProt P12004 1-261)
T1 construct: also called PCNA

[2] = target: T2, phosphoglucomutase 2 like 1 (human, UniProt Q6PCE3 1-622 at identity 1.00), limits assumed)
T2 construct: also called PGM2L1
T2 sequence: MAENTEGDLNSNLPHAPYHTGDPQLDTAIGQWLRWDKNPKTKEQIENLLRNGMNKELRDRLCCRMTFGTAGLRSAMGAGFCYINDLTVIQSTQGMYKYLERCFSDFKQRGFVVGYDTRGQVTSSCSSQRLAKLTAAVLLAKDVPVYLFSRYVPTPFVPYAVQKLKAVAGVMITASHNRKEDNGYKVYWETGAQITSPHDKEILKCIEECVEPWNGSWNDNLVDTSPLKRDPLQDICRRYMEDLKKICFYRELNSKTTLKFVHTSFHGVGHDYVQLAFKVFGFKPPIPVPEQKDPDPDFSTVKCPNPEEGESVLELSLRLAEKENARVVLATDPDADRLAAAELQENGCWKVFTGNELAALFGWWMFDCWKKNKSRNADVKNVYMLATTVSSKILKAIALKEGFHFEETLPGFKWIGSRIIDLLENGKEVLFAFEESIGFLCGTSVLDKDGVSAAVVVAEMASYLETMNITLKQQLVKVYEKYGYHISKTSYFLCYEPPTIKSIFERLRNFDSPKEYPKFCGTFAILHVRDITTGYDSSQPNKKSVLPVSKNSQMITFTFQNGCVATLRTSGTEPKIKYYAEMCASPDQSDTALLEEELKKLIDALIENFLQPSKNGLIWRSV

[3] = target: BAF chromatin remodeling complex subunit BCL7C, transcript variant 2 (human, UniProt Q8WUZ0 1-217)
[4] = target: T3, aarF domain containing kinase 5 (human, UniProt Q3MIX3 1-580)
T3 construct: also called ADCK5

programmed cell death 1 = target: T4, programmed cell death 1 (human, UniProt Q15116 25-288, limits assumed)
T4 construct: also called PDCD1

phosducin like = target: T5, phosducin like (human, UniProt Q13371 2-301)
T5 construct: also called PDCL
T5 sequence: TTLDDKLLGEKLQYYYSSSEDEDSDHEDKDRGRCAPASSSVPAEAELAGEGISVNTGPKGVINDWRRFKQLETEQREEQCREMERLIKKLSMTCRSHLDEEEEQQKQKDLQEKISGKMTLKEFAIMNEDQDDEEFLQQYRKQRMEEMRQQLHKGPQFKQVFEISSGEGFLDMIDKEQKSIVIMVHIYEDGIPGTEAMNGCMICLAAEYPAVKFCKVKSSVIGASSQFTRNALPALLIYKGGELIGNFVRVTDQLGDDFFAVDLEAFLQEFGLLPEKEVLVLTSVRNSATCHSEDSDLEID

[5] = target: T6, glyoxylate and hydroxypyruvate reductase (human, UniProt Q9UBQ7 1-328)
T6 construct: also called GRHPR
T6 sequence: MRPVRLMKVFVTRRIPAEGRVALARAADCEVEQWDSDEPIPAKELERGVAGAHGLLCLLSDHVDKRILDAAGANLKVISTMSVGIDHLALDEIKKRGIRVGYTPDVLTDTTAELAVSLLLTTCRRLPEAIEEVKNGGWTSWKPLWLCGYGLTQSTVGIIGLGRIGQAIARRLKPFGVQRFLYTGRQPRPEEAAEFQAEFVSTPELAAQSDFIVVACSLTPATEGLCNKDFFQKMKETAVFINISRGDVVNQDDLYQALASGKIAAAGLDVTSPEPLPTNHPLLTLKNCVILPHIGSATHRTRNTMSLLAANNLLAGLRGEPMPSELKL

G antigen 2A = target: T7, G antigen 2A (human, UniProt Q6NT46 1-116)
T7 construct: also called GAGE2A
T7 sequence: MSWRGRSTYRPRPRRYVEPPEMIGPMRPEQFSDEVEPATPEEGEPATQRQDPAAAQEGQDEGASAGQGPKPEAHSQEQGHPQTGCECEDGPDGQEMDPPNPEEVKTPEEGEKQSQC

Dexd-box helicase 52 = target: T8, Dexd-box helicase 52 (human, UniProt Q9Y2R4 1-599)
T8 construct: also called DDX52
T8 sequence: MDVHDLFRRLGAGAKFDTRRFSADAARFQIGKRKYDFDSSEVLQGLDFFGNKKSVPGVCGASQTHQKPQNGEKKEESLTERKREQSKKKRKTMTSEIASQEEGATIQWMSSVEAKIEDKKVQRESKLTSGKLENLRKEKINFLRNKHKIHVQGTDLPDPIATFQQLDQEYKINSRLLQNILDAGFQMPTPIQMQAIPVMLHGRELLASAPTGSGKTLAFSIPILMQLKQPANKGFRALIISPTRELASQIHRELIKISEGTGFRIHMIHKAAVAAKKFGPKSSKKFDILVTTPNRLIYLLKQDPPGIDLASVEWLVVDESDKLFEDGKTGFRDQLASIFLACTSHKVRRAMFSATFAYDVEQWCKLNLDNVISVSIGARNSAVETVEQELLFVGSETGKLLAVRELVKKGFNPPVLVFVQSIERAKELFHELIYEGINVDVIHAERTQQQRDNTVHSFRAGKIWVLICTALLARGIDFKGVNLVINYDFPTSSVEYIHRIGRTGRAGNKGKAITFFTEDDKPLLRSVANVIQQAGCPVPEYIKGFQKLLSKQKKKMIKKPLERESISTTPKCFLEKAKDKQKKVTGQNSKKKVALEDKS

[6] = target: T9, G protein-coupled receptor 4 (human, UniProt P46093 1-362)
T9 construct: also called GPR4

[7] = target: T10, acyl-CoA binding domain containing 6 (human, UniProt Q9BR61 1-282)
T10 construct: also called ACBD6
T10 sequence: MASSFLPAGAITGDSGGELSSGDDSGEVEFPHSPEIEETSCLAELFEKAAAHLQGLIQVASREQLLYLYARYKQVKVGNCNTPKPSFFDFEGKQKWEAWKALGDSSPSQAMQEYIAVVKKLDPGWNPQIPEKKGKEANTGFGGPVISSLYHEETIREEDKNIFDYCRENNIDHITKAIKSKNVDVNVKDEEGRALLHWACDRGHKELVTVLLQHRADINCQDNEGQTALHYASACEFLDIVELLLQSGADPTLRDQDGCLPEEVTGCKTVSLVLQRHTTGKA

T3 sequence (Q3MIX3 other isoform, or with tags, fused parts or gaps limits assumed): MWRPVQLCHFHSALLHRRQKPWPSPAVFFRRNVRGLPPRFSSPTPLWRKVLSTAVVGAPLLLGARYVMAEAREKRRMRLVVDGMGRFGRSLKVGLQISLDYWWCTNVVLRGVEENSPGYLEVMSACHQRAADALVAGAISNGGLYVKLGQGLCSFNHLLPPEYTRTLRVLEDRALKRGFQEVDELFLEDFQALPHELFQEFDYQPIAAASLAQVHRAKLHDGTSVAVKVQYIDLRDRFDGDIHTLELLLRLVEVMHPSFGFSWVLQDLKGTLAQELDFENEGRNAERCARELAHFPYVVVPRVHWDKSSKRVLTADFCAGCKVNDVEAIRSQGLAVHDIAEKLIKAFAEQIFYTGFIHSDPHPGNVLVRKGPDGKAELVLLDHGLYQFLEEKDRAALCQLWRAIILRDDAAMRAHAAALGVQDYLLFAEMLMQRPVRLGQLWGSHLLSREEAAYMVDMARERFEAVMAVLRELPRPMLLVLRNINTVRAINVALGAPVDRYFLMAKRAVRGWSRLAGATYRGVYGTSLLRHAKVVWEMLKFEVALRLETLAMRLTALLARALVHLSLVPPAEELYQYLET
T9 sequence (P46093 whole entry): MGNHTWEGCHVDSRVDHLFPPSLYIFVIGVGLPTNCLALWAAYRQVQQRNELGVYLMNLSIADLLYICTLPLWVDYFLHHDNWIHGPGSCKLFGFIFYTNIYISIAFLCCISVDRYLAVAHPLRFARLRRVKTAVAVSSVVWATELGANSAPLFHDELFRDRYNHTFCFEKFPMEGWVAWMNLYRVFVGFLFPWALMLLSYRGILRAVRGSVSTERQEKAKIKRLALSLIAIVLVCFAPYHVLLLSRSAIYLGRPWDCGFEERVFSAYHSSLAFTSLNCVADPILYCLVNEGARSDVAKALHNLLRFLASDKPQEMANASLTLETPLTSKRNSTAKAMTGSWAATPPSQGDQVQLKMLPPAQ
T1 sequence (P12004 whole entry, change not shown): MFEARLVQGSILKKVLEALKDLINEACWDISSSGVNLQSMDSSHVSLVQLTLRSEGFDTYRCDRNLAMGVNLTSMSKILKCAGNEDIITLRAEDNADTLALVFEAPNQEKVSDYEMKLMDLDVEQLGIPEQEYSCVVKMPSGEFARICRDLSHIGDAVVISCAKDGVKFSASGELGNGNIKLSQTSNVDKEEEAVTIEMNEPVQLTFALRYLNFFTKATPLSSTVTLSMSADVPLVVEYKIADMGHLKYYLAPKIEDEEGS
T4 sequence (Q15116 25-288 limits assumed): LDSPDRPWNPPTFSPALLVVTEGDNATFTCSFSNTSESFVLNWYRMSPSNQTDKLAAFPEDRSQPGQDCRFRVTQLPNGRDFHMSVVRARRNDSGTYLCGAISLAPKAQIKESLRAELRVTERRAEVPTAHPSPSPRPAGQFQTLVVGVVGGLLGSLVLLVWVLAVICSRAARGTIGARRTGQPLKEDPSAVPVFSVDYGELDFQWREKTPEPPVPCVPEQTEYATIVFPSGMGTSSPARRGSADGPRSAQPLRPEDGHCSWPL

B1: TTHY1002 (antibody, V domains shown)
VH: EVQVVESGGGLGQPGGSLRLSCAASGFTFSSYSMNWVRQAPGKGLEWVSYISSSSSTKYYADSVKGRFTISRDNAKKSLYLQMNSLRDEDTAVYYCASPVRPWGQGTLVTVSS
VL: EIVMTQSPATLSVSPGERATLSCRASQSVSSNLAWYQQKPGQAPRLLIYGASTRATGIPARFSGSGSGTEFTLTISSLQSEDFAIYYCQQYNSWPAFGGGTKVEIK
binding result [1]: binds

B2: TTES1002 (antibody, V domains shown)
VH: QVQLQESGPGLVKPSETLSLICTVSGASVNSGTHFWSWIRQPPGKGLEWIGYVYYSGNTNYNPSLKSRVAISVDTSKNQFSLKLTSVTSADTAVYYCARDFDDGYDIRYWGQGTRVSVSS
VL: QSALTQPASVSGSPGQSITISCTGSSNDIGRYKYVSWFQHHPGRAPKLIIYEVNNRPSGLSHRFSGSKSGNTASLTISGLQAEDEADYYCCSYTSSLTYVFGTGTAVTVL
binding result [2]: binds

B3: TTHY1003 (antibody, V domains shown)
VH: QVQLVQSGAEMKKPGTSVKVSCRTSGYIFTGSFMHWVRQAPAQGLEWMGWINPKTGATYYTEKFKGRVTLTRDTSINTAYMEMTSLRSDDTAVYYCARGFCDLPACYPVPQYNWFDPWGQGTLVTVSS
VL: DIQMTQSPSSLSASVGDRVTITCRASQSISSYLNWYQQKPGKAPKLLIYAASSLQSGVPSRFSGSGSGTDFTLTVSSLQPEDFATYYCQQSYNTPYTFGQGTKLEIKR
binding result [3]: binds

B4: TTES1009 (antibody, V domains shown)
VH: EVQLVESGGGLVQPGGSLRLSCAASGFTFSSYEMNWVRQAPGKGLEWVSYISSSGSTIYYADSVKGRFTISRDNAKNSLYLQMNSLRAEDTAVYYCARRGFYYYYGMDVWGQGTTVTVSS
VL: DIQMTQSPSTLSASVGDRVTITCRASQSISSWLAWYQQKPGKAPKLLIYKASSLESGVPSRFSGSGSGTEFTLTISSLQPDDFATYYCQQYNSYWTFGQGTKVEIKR
binding result [4]: binds

B5: TTES1003 (antibody, V domains shown)
VH: VVQLVESGGGLVQPGGSLRLSCSASGFTFSSYAMHWVRQAPGKGLEYVSAISSNGGSTYYADSVKGRFTISRDNSKNTLYLQMSSLRAEDTAVYYCVKSPVAANDAFDIWGQGTMVTVSS
VL: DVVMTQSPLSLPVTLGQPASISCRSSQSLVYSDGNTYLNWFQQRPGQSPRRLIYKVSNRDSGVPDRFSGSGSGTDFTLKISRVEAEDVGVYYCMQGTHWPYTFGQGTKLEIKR
binding result (programmed cell death 1): binds

Other lines, results leading:

binding result (phosducin like): binds
B6: TTES1007 (antibody, V domains shown)
VH: QITLKESGPTLVKPTQTLTLTCTFSGFSLTTTGVGVGWIRQPPGKALEWLALIYWDDDKRYSPSLKSRLIITKDTSKNQVVLTMTNMDPVDTATYYCAHRFGRGVSYYYYGMDVWGQGTTVTVSS
VL: not shown

binding result [5]: binds
B7: TTES1004 (antibody, V domains shown)
VH: EVQLVESGGGLVQPGGSLRLSCVASGFTFSSYSMNWVRQAPGKGLKWVSYISSSRSTIYNADSVKGRFTISRDNAKKSLYLQMNSLRAEDTAVYYCARVSVAAPTCLDYWGQGTLVTVSS
VL: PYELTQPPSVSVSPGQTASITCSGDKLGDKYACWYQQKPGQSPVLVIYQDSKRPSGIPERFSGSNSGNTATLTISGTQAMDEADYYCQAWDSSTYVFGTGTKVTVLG

binding result (G antigen 2A): binds
B8: TTES1012 (antibody, V domains shown)
VH: EVQLVESGGGLVQPGGSLRLSCAASGFTFSSYWMTWVRQAPGKGLEWVANIKQDGSEKYYVDSVKGRFTISRDNSKNSLYLQMNSLRAEDTAVYYCARAGYDLFGWFDPWGQGTLVTVSS
VL: SYELTQPPSVSVSPGQTARITCSGDALPKQYAYWYQQKPGQAPVLVIYKDSERPSGIPERFSGSSSGTTVTLTISGVQAEDEADYYCQSADSSGTYVFGTGTKVTVLG

binding result (Dexd-box helicase 52): binds
binding result [6]: binds
B9: TTES1008 (antibody, V domains shown)
VH: QVQLVESGGGVVQPGRSLRLSCAASGFIFSSYGMHWVRQAPGKGLEWVAVISYDGSNKYYADSVKGRFTISRDKSKNTLHLQMNSLRAEDTAVYYCAKDSGSNDDMDVWGKGTTVTVSS
VL: QSVLTQPPSVSAAPGQKVTISCSGSSSNIGNNYVSWYQQLPGTAPKLLIYDNNKRPSGIPDRFSGSKSGTSATLGITGLQTGDEADYYCGTWDSSLSAGVFGTGTKVTVLG

binding result [7]: binds
B10: TTES1006 (antibody, V domains shown)
VH: EVQLVESGGGLVQPGGSLRLSCAASGFTFSKFWMHWVRQAPGKGLVWLSRINTDGTVTTYADSVKGRFTISRDNAKSTLYLQMNSLRVEDTAVYYCAGGGSQVDFWGQGTLVTVSS
VL: PYELTQPPSVSVSPGQTASIACSGDNLGNKYAWWYRQKPGQSPVLVMYKDNKRPSGIPERFSGSNSGNTATLTISGTQAMDEADYYCQTWDSSTVIFGGGTKLTVQ
